What follows are compounds tested against T1, LmFH-2 (cytosolic class I fumarate hydratase) (Leishmania major, UniProt E9AE57) (assay: crystal structure at […] Å). Conditions: not given.
T1 sequence (E9AE57 1-568): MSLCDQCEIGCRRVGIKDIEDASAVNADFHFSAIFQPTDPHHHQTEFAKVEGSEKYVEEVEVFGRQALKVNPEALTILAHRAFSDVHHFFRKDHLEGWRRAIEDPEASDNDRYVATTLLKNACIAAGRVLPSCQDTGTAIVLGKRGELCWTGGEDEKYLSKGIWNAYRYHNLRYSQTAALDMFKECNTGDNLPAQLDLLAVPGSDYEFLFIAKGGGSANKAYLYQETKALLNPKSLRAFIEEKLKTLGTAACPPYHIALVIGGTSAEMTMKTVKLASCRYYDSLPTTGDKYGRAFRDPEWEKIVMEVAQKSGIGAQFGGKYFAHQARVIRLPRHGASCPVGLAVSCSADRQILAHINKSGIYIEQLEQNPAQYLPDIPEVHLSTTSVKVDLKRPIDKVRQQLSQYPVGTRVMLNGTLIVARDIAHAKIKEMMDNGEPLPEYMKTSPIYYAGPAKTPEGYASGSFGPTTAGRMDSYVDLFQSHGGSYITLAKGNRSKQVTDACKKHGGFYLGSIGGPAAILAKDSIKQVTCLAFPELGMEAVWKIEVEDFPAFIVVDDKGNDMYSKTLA
Type: biochemical

Compound | IC50
O=C(O)CCC(=O)O [succinate] | 34.2 ± 1.2 mM

These compounds were tested against T2, LmFH-2-R173A (Leishmania major, UniProt E9AE57, R173A) (assay: not given). Conditions: not given.
T2 sequence (E9AE57 1-568 R173A): T1 sequence (E9AE57 1-568)

Compound | Km
O=C(O)/C=C/C(=O)O [fumarate] | 2.6 ± 0.6 mM

These compounds were tested on O=C(O)C[C@H](O)C(=O)O (assay: crystal structure). Conditions: [4Fe-4S] cluster active site, same binding mode as wild type.
Type: biochemical, Leishmania major

Compound | Km | Vmax | kcat | kcat/Km
LmFH-2-H334A (Leishmania major; H334A) | 4.6 ± 0.1 mM | 52 µmol/min/mg | 57.6 ± 0.4 s⁻¹ | 12500 ± 400 M⁻¹ s⁻¹
LmFH-2-R421A (Leishmania major; R421A) | 4.1 ± 0.3 mM | 0.13 µmol/min/mg | 0.144 ± 0.002 s⁻¹ | 35 ± 3 M⁻¹ s⁻¹
LmFH-2-R471A (Leishmania major; R471A) | 4.3 ± 0.2 mM | 0.034 µmol/min/mg | 0.038 ± 0.001 s⁻¹ | 9 ± 1 M⁻¹ s⁻¹
LmFH-2-T467A (Leishmania major; T467A) | 4.4 ± 0.2 mM | 0.047 µmol/min/mg | 0.052 ± 0.001 s⁻¹ | 12 ± 1 M⁻¹ s⁻¹

From paper PMC7065722 (Biochemistry, 2019)
